Columns and labels:
E2-Albumin偶联物 [1] = assay: indirect ELISA, E2-Albumin coated 3 ug/ml, antibody 31.3 ng/ml
E2-Albumin偶联物 [2] = assay: indirect ELISA, E2-Albumin coated 3 ug/ml, antibody 62.5 ng/ml
E2-Albumin偶联物 [3] = assay: indirect ELISA, E2-Albumin coated 3 ug/ml, antibody 125 ng/ml
E2-Albumin偶联物 [4] = assay: indirect ELISA, E2-Albumin coated 3 ug/ml, antibody 0.00 ng/ml (blank)
E2-Albumin偶联物 [5] = assay: indirect ELISA, E2-Albumin coated 3 ug/ml, antibody 7.81 ng/ml
E2-Albumin偶联物 [6] = assay: biosensor (AMC sensor), antibody immobilised at 5 ug/ml, E2-Albumin in gradient
E2-Albumin偶联物 [7] = assay: indirect ELISA, E2-Albumin coated 3 ug/ml, antibody 15.63 ng/ml

| Binder | OD450 (E2-Albumin偶联物 [1]) [OD450] | OD450 (E2-Albumin偶联物 [2]) [OD450] | OD450 (E2-Albumin偶联物 [3]) [OD450] | OD450 (E2-Albumin偶联物 [4]) [OD450] | OD450 (E2-Albumin偶联物 [5]) [OD450] | Kd (E2-Albumin偶联物 [6]) [nM] | koff (E2-Albumin偶联物 [6]) [s⁻¹] | kon (E2-Albumin偶联物 [6]) [M⁻¹ s⁻¹] | OD450 (E2-Albumin偶联物 [7]) [OD450] |
| --- | --- | --- | --- | --- | --- | --- | --- | --- | --- |
| Anti-E2 7A4mut1 (antibody) heavy: QVRLQESGPSLVKPSQTLSLTCTISGFSLSGNAITWVRQAPGEVPEWLGGVDNRGSAYYSPALRSRLSITRDTSKSQVSLSLYGVTVEDTAVYYCGRGVWGVDGAGYAHDYWGPGLLVTVSTASTTPPKVYPLTSCCGDTSSSIVTLGCLVSSYMPEPVTVTWNSGALTSGVHTFPAILQSSGLYSLSSVVTVPASTSGAQTFICNVAHPASSTKVDKRVGLSSDYSKCSKPPCVSRPSVFIFPPKPKDSLMITGTPEVTCVVVDVGQGDPEVQFSWFVDNVEVRTARTKPREEQFNSTFRVVSALPIQHDHWTGGKEFKCKVHSKGLPAPIVRTISRAKGQAREPQVYVLAPPQEELSKSTLSVTCLVTGFYPDYIAVEWQRARQPESEDKYGTTTSQLDADGSYFLYSRLRVDKSSWQRGDTYACVVMHEALHNHYTQKSISKPPGK light: QAVVTQLSSVSGSLGQRVSLTCSGSSSNVGSHSVDWFQKLSESGLRIVIYGTRNRPSGVPDRFSGSKSGNTATLTITSLQTEDEADYYCATSDSTTMTYIFGDGTRLTALGQPKSAPSVTLFPPSTEELSTNKATVVCLINDFYPGSVNVVWKADGSTINQNVKTTQASKQSNSKYAASSYLTLTGSEWKSKSSYTCEVTHEGSTVTKTVKPSECS | 0.94 | 1.52 | 2.06 | 0.01 | 0.22 | 9.84 | 0.00022 | 22400 | 0.366 |
| Anti-E2 7A4mut3 (antibody) heavy: QVRLQESGPSLVKPSQTLSLTCTISGFSLSGNAITWVRQAPGEVPEWLGGVDNRGSAYYSPALRSRLSITRDTSKSQVSLSLYGVTVEDTAVYYCGRGVWGVDGAGYAHDYWGPGLLVTVSTASTTPPKVYPLTSCCGDTSSSIVTLGCLVSSYMPEPVTVTWNSGALTSGVHTFPAILQSSGLYSLSSVVTVPASTSGAQTFICNVAHPASSTKVDKRVGLSSDYSKCSKPPCVSRPSVFIFPPKPKDSLMITGTPEVTCVVVDVGQGDPEVQFSWFVDNVEVRTARTKPREEQFNSTFRVVSALPIQHDHWTGGKEFKCKVHSKGLPAPIVRTISRAKGQAREPQVYVLAPPQEELSKSTLSVTCLVTGFYPDYIAVEWQRARQPESEDKYGTTTSQLDADGSYFLYSRLRVDKSSWQRGDTYACVVMHEALHNHYTQKSISKPPGK light: QAVVTQLSSVSGSLGQRVSITCSGSSSNVGSHSVDWFQKLSESGLRIVIYGTRNRPSGVPDRFSGSKSGNTATLTITSLQTEDEADYYCATSDSTTMTYIFGDGTRLTALGQPKSAPSVTLFPPSTEELSTNKATVVCLINDFYPGSVNVVWKADGSTINQNVKTTQASKQSNSKYAASSYLTLTGSEWKSKSSYTCEVTHEGSTVTKTVKPSECS | 1.6 | 2.16 | 2.27 | 0.023 | 0.508 | 0.234 | 0.00038 | 1.63e+06 | 0.979 |

Now those with a lower Kd (E2-Albumin偶联物 [6]), led by results:

| OD450 (E2-Albumin偶联物 [1]) [OD450] | OD450 (E2-Albumin偶联物 [2]) [OD450] | OD450 (E2-Albumin偶联物 [3]) [OD450] | OD450 (E2-Albumin偶联物 [4]) [OD450] | OD450 (E2-Albumin偶联物 [5]) [OD450] | Kd (E2-Albumin偶联物 [6]) [nM] | koff (E2-Albumin偶联物 [6]) [s⁻¹] | kon (E2-Albumin偶联物 [6]) [M⁻¹ s⁻¹] | OD450 (E2-Albumin偶联物 [7]) [OD450] | Binder |
| --- | --- | --- | --- | --- | --- | --- | --- | --- | --- |
| 1.69 | 1.94 | 2.25 | 0.065 | 0.497 | 0.188 | 0.00032 | 1.7e+06 | 0.953 | Anti-E2 7A4mut2 (antibody, V domains shown) VH: QVRLQESGPSLVKPSQTLSLTCTISGFSISGNAITWVRQAPGEVPEWLGGVDNRGSAYYSPALRSRLSITRDTSKSQVSLSLYGVTVEDTAVYYCGRGVWGVDGAGYAHDYWGPGLLVTVST VL: QAVVTQLSSVSGSLGQRVSLTCSGSSSNVGSHSVDWFQKLSESGLRIVIYGTRNRPSGVPDRFSGSKSGNTATLTITSLQTEDEADYYCATSDSTTMTYIFGDGTRLTALG |
| 1.31 | 2.12 | 2.26 | 0.047 | 0.461 | 0.214 | 0.00044 | 2.06e+06 | 0.806 | Anti-E2 7A4mut4 (antibody, V domains shown) VH: QVRLQESGPSLVKPSQTLSLTCTISGFSLSGNAITWVRQAPGEVPEWLGGVDNRGSAYYSPALRSRLSITRDTSKSQVSLSLYGVTVEDTAVYYCGRGVWGVDGAGYAHDYWGPGLLVTVST VL: QAVVTQLSSVSGSLGQRVSLTCSGSSSNVGSHSVDWFQKLSESGLRIVLYGTRNRPSGVPDRFSGSKSGNTATLTITSLQTEDEADYYCATSDSTTMTYIFGDGTRLTALG |
